Measurements: patent US6534051

How the values were obtained:
[1] = target: receptor of ecotropic murine leukemia virus (UniProt Q09143); experiment: cell-based or functional assay
[2] = target: cell-surface protein expressed on various human cancers (e.g., HeLa and Col-1 cells), antigen of antibody B6.2 (human); experiment: cell-based or functional assay

UniProt Q09143, sequence (Q09143 whole entry): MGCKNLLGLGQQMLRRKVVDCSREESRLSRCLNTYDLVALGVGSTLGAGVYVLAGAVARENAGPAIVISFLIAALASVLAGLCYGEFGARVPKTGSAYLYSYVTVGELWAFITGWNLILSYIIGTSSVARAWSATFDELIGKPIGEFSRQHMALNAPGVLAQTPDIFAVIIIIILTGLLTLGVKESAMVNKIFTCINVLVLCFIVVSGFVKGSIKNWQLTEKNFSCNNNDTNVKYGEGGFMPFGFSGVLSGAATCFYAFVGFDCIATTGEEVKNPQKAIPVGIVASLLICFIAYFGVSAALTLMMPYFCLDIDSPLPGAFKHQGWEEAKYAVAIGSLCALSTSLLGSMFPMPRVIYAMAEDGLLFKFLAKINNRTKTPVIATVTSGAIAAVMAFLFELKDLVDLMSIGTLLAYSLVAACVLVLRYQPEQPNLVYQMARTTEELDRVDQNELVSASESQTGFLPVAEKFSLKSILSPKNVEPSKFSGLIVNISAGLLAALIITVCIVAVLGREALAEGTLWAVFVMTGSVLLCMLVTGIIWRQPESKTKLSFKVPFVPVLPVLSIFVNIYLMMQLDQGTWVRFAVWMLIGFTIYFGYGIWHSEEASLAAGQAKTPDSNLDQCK

Substance: SNV-MLV-chiC targeting envelope: almost complete SU peptide of ecotropic murine leukemia virus fused to carboxy terminal part of the SNV envelope (as in pTC4)
- Virus titer (cfu/ml) on CHTG cells, particles with MLV-SNV-chiC + wt SNV [1]: 1000 cfu/ml

Substance: SNV-MLV-chiD targeting envelope: almost complete SU peptide of ecotropic murine leukemia virus fused to carboxy terminal part of the SNV envelope (as in pTC5)
- Virus titer (cfu/ml) on CHTG cells, particles with MLV-SNV-chiD + wt SNV [1]: 1000 cfu/ml

Substance: TC24 targeting envelope: B6.2 single chain antibody fused to carboxy terminal part of the SNV envelope (same amount of SNV envelope as pTC4) (scFv)
- Titer (CFU/ml) on COL-1, particles with TC24 + wt-env [2]: 115 CFU/ml
- Titer (CFU/ml) on HeLa, particles with TC24 + wt-env [2]: 250 CFU/ml
- Titer (CFU/ml) on HeLa, particles with TC24 alone [2]: 5 CFU/ml

Substance: TC25 targeting envelope: B6.2 single chain antibody fused to carboxy terminal part of the SNV envelope (same amount of SNV envelope as pTC5) (scFv)
- Titer (CFU/ml) on COL-1, particles with TC25 + wt-env [2]: 55 CFU/ml
- Titer (CFU/ml) on HeLa, particles with TC25 + wt-env [2]: 100 CFU/ml
- Titer (CFU/ml) on HeLa, particles with TC25 alone [2]: 20 CFU/ml

Substance: TC26 targeting envelope: B6.2 single chain antibody fused to the SNV envelope at codon 168 (167 in the legend of FIG. 6) (scFv)
- Titer (CFU/ml) on COL-1, particles with TC26 + wt-env [2]: 45 CFU/ml
- Titer (CFU/ml) on HeLa, particles with TC26 + wt-env [2]: 90 CFU/ml
- Titer (CFU/ml) on HeLa, particles with TC26 alone [2]: 10 CFU/ml
